Where a chain is given by its changes, count along the chain named. Like-named read-outs stand apart in the source and are kept apart here.
How the values were obtained:
[1] = target: T1, LCMV clone 13 nucleocapsid protein (NP), purified recombinant (LCMV clone 13 (stand-in: strain …, UniProt P09992, strain))
[2] = target: T1, LCMV clone 13 nucleocapsid protein …; test: ELISA; conditions: one partner purified
[3] = target: T2, LCMV clone 13 nucleocapsid protein (NP), purified recombinant (Lymphocytic choriomeningitis virus …, UniProt P09992 1-558); test: BLI
T2 chain: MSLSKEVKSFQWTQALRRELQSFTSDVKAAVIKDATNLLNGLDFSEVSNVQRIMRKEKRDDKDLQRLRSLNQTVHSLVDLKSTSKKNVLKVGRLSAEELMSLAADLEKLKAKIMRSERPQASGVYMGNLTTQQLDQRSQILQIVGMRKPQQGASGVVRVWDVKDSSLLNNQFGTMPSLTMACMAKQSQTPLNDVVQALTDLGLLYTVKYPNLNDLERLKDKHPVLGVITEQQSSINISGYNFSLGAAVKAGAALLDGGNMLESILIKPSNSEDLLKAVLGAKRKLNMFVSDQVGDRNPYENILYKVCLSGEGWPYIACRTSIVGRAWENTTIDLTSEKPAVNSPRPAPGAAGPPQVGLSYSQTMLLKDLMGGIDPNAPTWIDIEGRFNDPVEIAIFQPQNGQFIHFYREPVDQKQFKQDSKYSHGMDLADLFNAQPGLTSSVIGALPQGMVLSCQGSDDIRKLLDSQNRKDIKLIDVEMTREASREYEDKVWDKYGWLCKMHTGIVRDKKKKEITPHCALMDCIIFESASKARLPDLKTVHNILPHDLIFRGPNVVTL

B1: Rank2.4 (antibody, V domains shown)
VH: EVQLQQSGPELVKPGASVKMSCKASGYTFTDYNMHWVKQSHGKSLEWFGYIDPNNGGIRYNQLFKGKATLTVNKTSRIAYMELRSLTSEDSAVYYCAREGGYWYFDVWGTGTTVIVSS
VL: DIVMTQSHKFKSTPVGDRVSITCKASQDVSTAVAWYQQKPGQSPKLLIYWASTRHTGVPDRFTGSGSGTDYTLTISSVQAEDLALYYCQQHYSTPFTFGSGTKLEIK
Does B1 bind [1]?
Result: binds

B2: third additionally expressed variant of the second most expanded IgG clone (single-reactive) (antibody, V domains shown)
VH: B1 VH with T30I, F48I, D52N, I58T, R59N, L63K, T75S, R77S, I78T, I115T
VL: B1 VL with K11M, P14S, K103E
notes: also called one of the three tested variants; single-reactive antibody
Does B2 bind [2]?
Result: binds

And the Kd [3]?
The Kd was 370 nM.

B3: Rank2.5 (antibody, V domains shown)
VH: B1 VH with F48I, D52N, I58S, L63K, V72G, T75S, R77S, I78T, I115T
VL: B1 VL with K11M, P14S, V33I
Does B3 bind [1]?
Result: binds

B4: NP-specific, second most expanded IgG clone, most expanded antibody variant (antibody, V domains shown)
VH: B1 VH with F48I, D52N, I58T, R59S, L63K, T75S, R77S, I78T, I115T
VL: B1 VL with K11M, P14S
notes: also called second most expanded clone; previously tested variant
Does B4 bind [2]?
Result: binds

What about the Kd [3] of the same binder?
Its Kd is 470 nM.

B5: NP-specific IgG clone other than the second most expanded clone (antibody, V domains shown)
VH: QVQLQQSDAELVKPGASVKISCKVSGYTFTDHTIHWMKQRPEQGLEWIGYIYPRDGSTKYNEKFKGKATLTADKSSSTAYMQLNSLTSEDSAVYFCARGGYYGFYYFDYWGQGTTLTVSS
VL: DIVLTQSPASLAVSLGQRATISCRASESVEYYGTSLMQWYQQKPGQPPKLLIYAASNVESGVPARFSGSGSGTDFSLNIHPVEEDDIAMYFCQQSWKVPYTFGGGTKLEIK
notes: also called one of the two NP-specific clones
Does B5 bind [2]?
Result: binds

From publication PMC9299196, “Profiling the specificity of clonally expanded plasma cells during chronic viral infection by single‐cell analysis” (European Journal of Immunology, 2021)
